We go through two molecules from patent publication US20050271651A1, “Inhibition of bright function as a treatment for excessive immunoglobulin production” (Oklahoma Medical Research Foundation, published 2005).

One data set addresses T1, Bright (ARID3A/Dril1) (Homo sapiens, UniProt Q99856 SEQ:1-593).
T1 sequence: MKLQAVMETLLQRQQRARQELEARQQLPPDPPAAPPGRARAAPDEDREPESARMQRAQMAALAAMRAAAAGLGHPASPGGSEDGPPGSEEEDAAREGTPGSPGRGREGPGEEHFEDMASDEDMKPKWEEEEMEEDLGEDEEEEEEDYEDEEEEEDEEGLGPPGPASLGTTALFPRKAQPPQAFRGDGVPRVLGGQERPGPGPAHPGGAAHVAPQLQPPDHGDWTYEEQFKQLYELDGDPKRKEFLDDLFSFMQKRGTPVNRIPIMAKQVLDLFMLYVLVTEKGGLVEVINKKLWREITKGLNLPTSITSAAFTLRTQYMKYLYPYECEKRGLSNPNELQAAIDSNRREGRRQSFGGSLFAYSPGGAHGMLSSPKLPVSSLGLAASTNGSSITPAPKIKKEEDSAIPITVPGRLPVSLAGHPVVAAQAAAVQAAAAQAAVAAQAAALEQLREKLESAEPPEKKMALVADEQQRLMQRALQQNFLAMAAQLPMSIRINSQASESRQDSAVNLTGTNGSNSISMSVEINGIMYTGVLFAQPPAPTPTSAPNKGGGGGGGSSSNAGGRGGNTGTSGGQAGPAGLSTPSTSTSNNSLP
Kind of data set: competition; nonspecific competitor, recombinant Bright. The following applies: tags: TNT rabbit reticulocyte lysate. The method, then: Electrophoretic mobility shift assays (EMSAs). Nuclear extracts were prepared by hypotonic lysis, protein concentrations were quantified with Bradford reagents (BioRad, Richmond, Calif.), and EMSAs were performed in 4% nondenaturing acrylamide gels after incubation for 15 min at 37° C. with gamma-³²P-labeled probe, as previously described (Buchanan et al., 1995). The prototypic Bright binding site (a 150 base pair Bam HI-Fok I fragment called bf150) from the S107 V1 5′ flanking sequence (Webb et al., 1991) was used as a probe. In some instances, antibodies were added 5 min before incubation with the probe. […] A double-stranded oligo containing the 45 base pair foot-printed Bright binding site within bf150 described in Webb et al. (1991) was used as a specific competitor in increasing concentrations and a mutated version of that oligonucleotide containing the double-stranded sequence corresponding to 5′-[…]-3′ (SEQ ID NO:6) was used as a non-specific competitor. Underlined nucleotides represent changes from the prototype. Competition assays were performed as previously described (Webb et al., 1991).
To confirm that the protein complexes that reacted with anti-Bright antibodies in FIG. 2D were specific for the Bright binding site, competition experiments were performed in the presence of double-stranded oligonucleotides spanning the Bright binding motif.

Data set [1] concerns the molecule itself. As to the kind of experiment: size exclusion chromatography (not shown). In general terms: Size exclusion chromatography separates by hydrodynamic size, large species first.
Data set [2] addresses T2, mouse Bright, native (untagged) wild-type (mouse, UniProt Q62431 1-601).
T2 construct: range 1-601; Untagged protein, tested in three forms: expressed in CHO cells, in vitro translated, or endogenous in the mouse B cell lines BCg3R-1d and M12g3Ri; Found as a dimer in solution by size exclusion chromatography; also called native Bright; wild-type Bright
T2 sequence (looked up): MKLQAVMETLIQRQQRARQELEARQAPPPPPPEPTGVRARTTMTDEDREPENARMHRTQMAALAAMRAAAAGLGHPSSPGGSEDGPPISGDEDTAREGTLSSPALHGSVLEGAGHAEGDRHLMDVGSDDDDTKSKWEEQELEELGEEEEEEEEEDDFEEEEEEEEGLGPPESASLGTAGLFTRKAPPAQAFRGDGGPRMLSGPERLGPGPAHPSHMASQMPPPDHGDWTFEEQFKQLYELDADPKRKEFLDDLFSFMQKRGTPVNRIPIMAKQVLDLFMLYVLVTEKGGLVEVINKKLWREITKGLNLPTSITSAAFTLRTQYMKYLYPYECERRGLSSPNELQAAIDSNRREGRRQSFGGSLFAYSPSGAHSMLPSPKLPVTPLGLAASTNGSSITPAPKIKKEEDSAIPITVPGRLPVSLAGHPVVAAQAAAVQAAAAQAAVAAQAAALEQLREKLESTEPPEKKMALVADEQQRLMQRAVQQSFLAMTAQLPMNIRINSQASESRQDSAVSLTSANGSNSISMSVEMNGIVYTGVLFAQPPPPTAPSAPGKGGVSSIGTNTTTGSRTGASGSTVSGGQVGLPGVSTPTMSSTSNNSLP
As to the kind of experiment: co-expression in CHO cells, anti-myc immunoprecipitation, anti-Bright blot. As for the experimental part: FIGS. 11A-B—Tagged Bright proteins dimerize with native Bright. (FIG. 11A) Nuclear extracts from cells expressing Bright protein were subjected to size exclusion chromatography and protein fractions were analyzed for Bright by western blotting (lower panel). Data are presented graphically relative to molecular weight standards in the upper panel and are representative of four experiments. (FIG. 11B) C-terminal myc-his tagged Bright was either singly or coexpressed in CHO cells with native Bright. […] Immunoprecipitations using anti-myc Ab (middle panel) and anti-Sp1 as an isotype control (bottom panel) were performed with each of the transfected extracts and developed with anti-Bright reagents. Arrows indicate immunoglobulin heavy chain cross-reactive with the secondary reagent. Data are representative of two separate experiments.
To determine if the mutated proteins formed heterodimers with wild-type Bright, his-myc-tagged mutant forms of Bright were co-expressed in CHO cells with native wild-type Bright. Tagged proteins were distinguished from native Bright by the slight size differences in western blots (FIG. 11B) and were confirmed using anti-tag antibodies (not shown). Anti-myc antibodies were used to immunoprecipitate the tagged proteins and blots were developed with anti-Bright (FIG. 11B). In every case, a lower molecular weight band was detected that reflected the presence of native Bright.

B1: mutated Bright site competitor (dsDNA)
DNA 1: TAAGTATAAATATGTACATGAGTACACCCTCCACTTATTTATCTTA
DNA 2: TAAGATAAATAAGTGGAGGGTGTACTCATGTACATATTTATACTTA
Turning to B1, in the data set with Bright (ARID3A/Dril1), the binding result is on record as “no binding”.

B2: mouse Bright REKLES mutant (REKLES at amino acids 455-460 changed to AEALEA), C-terminal myc-his tagged (other, UniProt Q62431 1-601, looked up)
chain: MKLQAVMETLIQRQQRARQELEARQAPPPPPPEPTGVRARTTMTDEDREPENARMHRTQMAALAAMRAAAAGLGHPSSPGGSEDGPPISGDEDTAREGTLSSPALHGSVLEGAGHAEGDRHLMDVGSDDDDTKSKWEEQELEELGEEEEEEEEEDDFEEEEEEEEGLGPPESASLGTAGLFTRKAPPAQAFRGDGGPRMLSGPERLGPGPAHPSHMASQMPPPDHGDWTFEEQFKQLYELDADPKRKEFLDDLFSFMQKRGTPVNRIPIMAKQVLDLFMLYVLVTEKGGLVEVINKKLWREITKGLNLPTSITSAAFTLRTQYMKYLYPYECERRGLSSPNELQAAIDSNRREGRRQSFGGSLFAYSPSGAHSMLPSPKLPVTPLGLAASTNGSSITPAPKIKKEEDSAIPITVPGRLPVSLAGHPVVAAQAAAVQAAAAQAAVAAQAAALEQLAEALEATEPPEKKMALVADEQQRLMQRAVQQSFLAMTAQLPMNIRINSQASESRQDSAVSLTSANGSNSISMSVEMNGIVYTGVLFAQPPPPTAPSAPGKGGVSSIGTNTTTGSRTGASGSTVSGGQVGLPGVSTPTMSSTSNNSLP
notes: range 1-601; not shown: C-terminal myc-his tag from vector pcDNA4/TO/myc-His B
Take B2: the binding result in data set [1] and in data set [2] was “binds” each time.
